In US20220226469A1 (ARCH ONCOLOGY, published 2022):

B1: SIRP4 (antibody, V domains shown)
VH: EVQLQQSGPDLVKPGASVKISCKASGYSFTDYFLNWVKQSHGKSLEWIGRINPYNGDSFINQNFRDKATLTVDKSSTTAHMDLLSLTSEDSAIYYCGRGGYDGYFIAYFDYWGQGSLVTVSA
VL: DIKLTQSQSSMYSSLGQRVTITCKASQDINSHLSWFQEKPGKSPKTLIYRANRLADGVPSRFSGSGSGQDYFLTISSLEYEDVGIYYCLQYDEFPYTFGGGTKLEIK
notes: anti-mouse secondary
B2: SIRP7 (antibody, V domains shown)
VH: EVQLQQSGPELVKPGASVKMSCRASGYTFSTYVMHWIKHRPGQGLEWIGYINPNNDGPNYNEKFKGKATLTSDISSSTAYMELSSLTSEDSAVYFCSRWDSYNSAAGFAYWGHGTLVTVSA
VL: EIVLTQSPTTMAASPGEKITIICSASSSISSNFLHWYQQKPGFSPRFLIYRTSILASGVPTRFSGSGSGTSYSLTIDTMEAEDVATYYCQQGSGLPLTFGSGTKLEIK
B3: KWAR-23 (antibody, V domains shown)
VH: EVQLQQSGAELVKPGASVKLSCTASGFNIKDYYIHWVQQRTEQGLEWIGRIDPEDGETKYAPKFQDKATITADTSSNTAYLHLSSLTSEDTAVYYCARWGAYWGQGTLVTVSA
VL: QIVLTQSPAIMSASPGEKVTLTCSASSSVSSSYLYWYQQKPGSSPKLWIYSTSNLASGVPARFSGSGSGTSYSLTISSMEAEDAASYFCHQWSSYPRTFGAGTKLELKR
B4: SIRP5 (antibody, V domains shown)
VH: QVQLQQSAAELARPGASVKMSCKASGYTFTSYTMHWVKQRPGQGLEWIGYINPTIGYTEYNQKFKDKTTLTADKSSSTAYMQLSSLTSEDSAVYYCVRLVITSVLGRAMDYWGQGTSVTVSS
VL: QIVLTQSPALMSASPGEKVTMTCSASSSVSYMYWFQQKPRSSPKPWIYLTSNLASGVPARFSGSGSGTSYSLTISSMEAEDAATYYCQQWSGNPFTFGSGTKLEIK
B5: SIRP3 (antibody, mouse IgG1, kappa, V domains shown)
VH: EVQLQQSGPEVVKPGASVKMSCKASGYTFTSYVMHWVKQKPGQGLEWIGYINPYNDGPKYNEKFKGKATLTSDKSSSTAYMELSSLTSEDSAVYFCARWDYFNSASGFAFWGQGTLVTVSA
VL: EIVLTQSPTTMAASPGEKITIICSASSIIGSDFLHWYQQRPGFSPKFLIYRTSILASGVPTRFTGSGSGTSYSLTIGTMEAEDVATYYCQQGSGLPLTFGSGTKLEMKR
notes: Hybridoma-derived mouse mAb
B6: SIRP2 (antibody, mouse IgG1, kappa, V domains shown)
VH: EVKLVESGGGLVQPGGSLKLSCAASGFSFSGCTMSWIRQTPERRLEWVAYISNGGDITYYPDTVKGRFTISRDNAKNSLYLQMSSLKSEDTAMYYCARLDGYYYAMDFWGQGTSVTVSS
VL: DILLTQSPAILSVSPGERVSFSCRASQSIGTSIHWYQQRTNGSPRLLIKYGSESISGIPSRFSGSGSGTDFTLSINSVESEDIADYYCQQSNTWPLTFGDGTKLELKR
notes: Hybridoma-derived mouse mAb
B7: SIRP9 (antibody, V domains shown)
VH: EVQLQESGAELVRPGASVKLSCKALGYTFTDYEIHWVKETPVYGLEWIGDIHPGSGGTANNQKFKGKATLTADKSSNTAYMELSSLTSEDSAVYYCTRAVSGYYAMDYWGQGTSVTVSS
VL: DIQMTQSSSSFSGSLGDRLTINCKASEDIYDRVAWYQQKPGNAPRLLISGTASLETGVLSRFSGSGSGKDYTLSINGLQAEDVATYYCQQYWTTPWTFGGGTKLEIK
notes: anti-mouse secondary

What was measured:
[1] = biological target: T1, human SIRPα expressed on cells (THP-1 cells, human monocyte-derived macrophages, dendritic cells) (human, UniProt P78324 31-504); experiment: flow cytometry on human monocyte-derived macrophages; apparent Kd
T1 construct: Endogenous SIRPα of cell line or donor cells; also called cell-expressed SIRPα; macrophage expressed SIRPα
Protocol: (§1) Human CD14⁺ monocytes, isolated from peripheral blood mononuclear cells (Astarte Biologics) were differentiated in vitro for seven days into macrophages or dendritic cells. For macrophage differentiation, monocytes were incubated in AIM-V media (Life Technologies) supplemented with 50 ng/ml M-CSF (Biolegend) for seven days. For dendritic cell differentiation, monocytes were incubated in AIM-V media (Life Technologies) in the presence of 10% human AB serum (Valley Biomedical), 200 ng/ml GM-CSF (Biolegend) and 50 ng/ml IL-4 (Biolegend). The cells were incubated for 1 h at 37° C., 5% CO₂ with serial dilutions of SIRP mAbs in binding buffer containing 1 mM EDTA (Sigma Aldrich) and 1% FBS (Biowest) in PBS (Corning). The cells were then washed and stained for 45 min under the same conditions with donkey anti-mouse IgG fluorescein isothiocyanate (FITC)-linked secondary antibody (Jackson ImmunoResearch Laboratories). The cells were subsequently stained with anti-CD14 or anti-CD11c conjugated to Alexa Fluor 647 fluorophore (Life Technologies and Biolegend, respectively) for 30 min on ice, washed and analyzed by flow cytometry (Attune, Life Technologies). Binding was assessed as the median FITC fluorescence intensity of CD14⁺ or CD11c⁺ cells, subtracted from cells stained with the secondary antibody only.

[2] = biological target: T2, HIS tagged human SIRPα (ACRO #SIG-H5225) (human, UniProt P78324 31-373); experiment: blocking ELISA on plate-coated HIS tagged human SIRPα; competitor Fc tagged human CD47 (250 ng/ml)
T2 construct: Bought protein; also called Histidine (HIS) tagged human SIRPα; not shown: histidine tag
Protocol: HIS tagged human SIRPα (ACRO #SIG-H5225) is adsorbed to high-binding microtiter plates at a concentration of 1 μg/ml diluted in PBS overnight at 4° C. The coating solution is removed, the wells are washed and then blocked with […] in PBS containing 0.5% Tween 20 (PBST) for 60 minutes at room temperature while shaking. Blocking solution is removed, the wells are washed and incubated for 60 minutes at room temperature while shaking with anti-SIRP mAbs diluted in PBST at a starting concentration of 30 μg/ml and reducing the concentration by 3-fold serial dilutions. Wells are washed three times with PBST and incubated for 60 minutes at room temperature while shaking with an FC tagged human CD47 (ACRO #CD7-H5256) at a concentration of 250 ng/ml in PBST. Wells are washed three times with PBST and incubated for 60 minutes at room temperature while shaking with an HRP labeled donkey anti-mouse or anti-human secondary antibody (Jackson ImmunoResearch Laboratories) diluted 1:20,000 in PBST. The wells are washed and then incubated with peroxidase substrate and the absorbance at 450 nm determined. The IC₅₀ was calculated using a non-linear fit model (GraphPad Prism).

[3] = biological target: T1, human SIRPα expressed on cells (THP-1 …); experiment: flow cytometry on human monocyte-derived dendritic cells; apparent Kd
Protocol: as §1

T2 sequence (P78324 31-373 limits assumed): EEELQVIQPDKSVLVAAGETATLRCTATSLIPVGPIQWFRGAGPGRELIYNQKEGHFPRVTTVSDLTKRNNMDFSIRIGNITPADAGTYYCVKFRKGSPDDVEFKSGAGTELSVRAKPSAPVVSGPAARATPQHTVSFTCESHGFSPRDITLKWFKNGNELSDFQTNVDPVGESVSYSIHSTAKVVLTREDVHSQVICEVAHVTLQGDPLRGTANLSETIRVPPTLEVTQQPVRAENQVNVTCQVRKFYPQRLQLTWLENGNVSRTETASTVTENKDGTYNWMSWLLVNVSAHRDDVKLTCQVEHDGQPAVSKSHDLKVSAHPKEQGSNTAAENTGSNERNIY
T1 sequence (P78324 other isoform, or with tags, fused parts or gaps): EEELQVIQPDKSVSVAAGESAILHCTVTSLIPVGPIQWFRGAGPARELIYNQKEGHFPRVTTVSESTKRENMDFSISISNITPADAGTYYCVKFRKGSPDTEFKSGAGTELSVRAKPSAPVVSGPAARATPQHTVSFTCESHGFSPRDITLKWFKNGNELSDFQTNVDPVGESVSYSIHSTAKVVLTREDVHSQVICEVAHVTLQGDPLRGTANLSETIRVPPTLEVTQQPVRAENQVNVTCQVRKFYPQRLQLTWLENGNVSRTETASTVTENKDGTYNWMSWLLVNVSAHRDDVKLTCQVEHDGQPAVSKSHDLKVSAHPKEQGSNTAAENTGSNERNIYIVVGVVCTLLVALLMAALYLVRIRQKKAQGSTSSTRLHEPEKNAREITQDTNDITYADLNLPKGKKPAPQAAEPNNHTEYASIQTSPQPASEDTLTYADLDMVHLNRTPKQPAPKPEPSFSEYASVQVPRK

Kd [1]	IC50 [2]	Kd [3]	Binder
20.7 pM	710 pM	50 pM	B1
	1100 pM		B2
		23.4 pM	B3
		770 pM	B4
	2700 pM	3.47 pM	B5
	3000 pM		B6
93.7 pM			B7
